Substitutions are numbered along the chain they refer to.

To fix the notation:
T1: Chimeric protein #1 (mPro-hCat-mC-term-mmh) (mouse; human, UniProt Q80W65 35-694)
T1 chain: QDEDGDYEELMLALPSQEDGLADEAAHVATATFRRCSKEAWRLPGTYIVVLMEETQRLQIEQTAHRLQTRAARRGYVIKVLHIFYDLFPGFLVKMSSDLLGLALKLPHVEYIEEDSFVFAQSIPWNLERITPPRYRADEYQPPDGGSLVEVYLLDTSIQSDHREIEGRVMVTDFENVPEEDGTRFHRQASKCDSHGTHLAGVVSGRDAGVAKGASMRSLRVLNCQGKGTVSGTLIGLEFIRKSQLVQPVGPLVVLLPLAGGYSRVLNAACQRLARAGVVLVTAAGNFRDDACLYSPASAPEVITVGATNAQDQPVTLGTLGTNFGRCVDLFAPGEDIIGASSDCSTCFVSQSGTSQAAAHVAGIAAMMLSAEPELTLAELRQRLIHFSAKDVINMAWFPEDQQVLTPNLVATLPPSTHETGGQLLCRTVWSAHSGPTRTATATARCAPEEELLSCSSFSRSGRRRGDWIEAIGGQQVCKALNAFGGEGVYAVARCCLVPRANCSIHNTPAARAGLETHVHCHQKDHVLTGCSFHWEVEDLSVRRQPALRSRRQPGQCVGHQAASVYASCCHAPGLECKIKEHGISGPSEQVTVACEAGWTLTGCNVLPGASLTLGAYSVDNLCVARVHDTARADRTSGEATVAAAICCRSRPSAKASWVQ

T2: Chimeric protein #3 (mPro-mCat-hC-term-mmh) (mouse; human)
T2 chain: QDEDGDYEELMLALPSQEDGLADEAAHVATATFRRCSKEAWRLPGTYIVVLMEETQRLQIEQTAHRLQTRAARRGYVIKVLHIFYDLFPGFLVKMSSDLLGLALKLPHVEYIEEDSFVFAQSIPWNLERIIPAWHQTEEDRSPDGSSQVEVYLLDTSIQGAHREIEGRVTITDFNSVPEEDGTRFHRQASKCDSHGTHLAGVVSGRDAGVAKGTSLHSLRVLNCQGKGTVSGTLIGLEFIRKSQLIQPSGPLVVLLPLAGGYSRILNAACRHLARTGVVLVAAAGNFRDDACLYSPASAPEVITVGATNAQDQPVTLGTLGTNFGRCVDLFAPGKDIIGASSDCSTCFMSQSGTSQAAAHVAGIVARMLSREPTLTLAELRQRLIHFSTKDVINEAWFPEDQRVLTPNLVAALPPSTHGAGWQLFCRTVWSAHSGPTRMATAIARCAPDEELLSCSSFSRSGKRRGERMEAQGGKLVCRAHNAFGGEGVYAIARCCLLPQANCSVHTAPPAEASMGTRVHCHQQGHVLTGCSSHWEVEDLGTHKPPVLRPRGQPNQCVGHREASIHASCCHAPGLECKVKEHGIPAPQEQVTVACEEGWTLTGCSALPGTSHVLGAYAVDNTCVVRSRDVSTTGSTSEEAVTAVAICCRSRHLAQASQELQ

B1: H1M300 (antibody, V domains shown)
VH: EMQLVESGGGLVQPGGSLRLSCAASGFTFSSHWMKWVRQAPGKGLEWVANINQDGSEKYYVDSVKGRFTISRDNAKNSLFLQMNSLRAEDTAVYYCARDIVLMVYDMDYYYYGMDVWGQGTTVTVSS
VL: not shown
notes: Hybridoma-derived chimeric antibody (human variable, mouse constant)
B2: H1H315P (antibody, V domains shown)
VH: QVQLVESGGGVVQPGRSLRLSCAASGFTFSSYGMHWVRQAPGKGLEWVAFIGFDGSNIYYGDSVRGRIIISRDNSENTLYLEMNSLRAEDTAVYYCAREKGLDWGQGTLVTVSS
VL: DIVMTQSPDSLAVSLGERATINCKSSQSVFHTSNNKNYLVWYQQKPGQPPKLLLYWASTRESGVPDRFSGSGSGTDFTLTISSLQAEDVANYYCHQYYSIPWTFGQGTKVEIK
notes: Fully human antibody cloned from B cells, made in CHO cells
B3: H1H318P (antibody, V domains shown)
VH: QVQLQESGPGLVKPSETLSLTCTVSGDSINTYYWSWFRQPPGKGLEWIGYIYYSGTTNYNPSLKSRVTISIDTPRNQFSLKLISVTAADTAVYYCARERITMIRGVTLYYYSYGMDVWGQGTTVTVSS
VL: DIQMTQSPSFLSASVGDRVTITCWASQDISSYLAWYQQKPGIAPKLLIYAASTLQSGVPSRFGGSGSGTEFTLTISSLQPEDFATYYCQQLNSYPRTFGQGTKVEIK
notes: as for B2
B4: H1H320P (antibody, V domains shown)
VH: QVQLVQSGAEVKKPGASVKVSCKASGYTFTNYGISWVRQAPGQGLELMGWISGYNGNTNYAQELQARVTMTTDTSTSTAYMELRNLRSDDTAVYYCARDRVVVAAANYYFYSMDVWGQGTTVTVSS
VL: DVVMTQSPLSLSVTLGQPASISCRSSQSLVYSDGDTYLNWFQQRPGQSPRRLIYKVSNRDSGVPDRFSGSGSGTAFTLKISGVEAEDVGVYYCMQATHWPRTFGQGTKVEIK
notes: as for B2
B5: H1H334P (antibody, V domains shown)
VH: QITLKESGPTLVKPSQTLTLTCTFSGFSLSTSGVGVGWIRQPPGKALEWLALIYWNSDKRYSPSLKSRLTITKDTSKNQVVLTMTNMDPVDTATYYCAHRHDSSSYYFYYGMDVWGQGTTVTVSS
VL: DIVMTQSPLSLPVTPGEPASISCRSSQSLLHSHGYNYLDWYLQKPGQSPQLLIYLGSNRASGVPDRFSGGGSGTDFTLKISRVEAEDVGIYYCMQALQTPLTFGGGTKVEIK
notes: as for B2
B6: H1M495 (antibody, V domains shown)
VH: EVQLVESGGGLVQPGRSLRLSCAASGFTFDDYAMHWVRQAPGKGLEWVSGINWNSGSIGYADSVKGRFTISRDNAKHSLYLQMNSLRPEDTALYYCVKEVTTGYYYGMDVWGQGTTVTVSS
VL: DIQLTQSPSFLSASVGDRVTITCWASQGISSYLAWYQKKPGKAPNLLIYDASTLQSGVPSRFSGSGSGTEFTLTLSSLQPEDFATYYCQQLNIYPFTFGPGTKVDIK
notes: as for B1
B7: H1M498 (antibody, V domains shown)
VH: EVQLVESGGGLVKPGGSLRLSCAASGFTFSSYSMDWVRQAPGKGLEWVSSISSSSSYIYYADSVKGRFTISRDTAKNSLYLQMNSLRDEDTAVYYCAREGSSRLFDYWGQGTLVTVSS
VL: DIQMTQSPSTLSASVGDRVTITCRASQSISSWLAWYQQRPGKAPKLLIYKASSLEGGVPSRFSGSGSGTEFTLTISSLQPEDFATYYCQQYNSYWYTFGQGTKLEIK
notes: as for B1
B8: H1H317P (antibody, V domains shown)
VH: EVQLVESGGGLVQPGGSLRLSCAVSGFTLSSYDMHWVRQPTGKGLEWVSAIGSTGDTYYPGSVKGRFTISRENAKNSLYLQMNSLRAGDTAVYYCAREGWDVPFDFWGQGTLVTVSS
VL: AIQMTQSPSSLSASVGDRVTITCRASQDIRNDLGWYQQKPGKAPKLLIYAASSLQSGVPSRFSGSGSGTDFTLTISSLQPEDFATYYCLQDYNYPWTFGQGTKVEIK
notes: as for B2
B9: H1H321P (antibody, V domains shown)
VH: B5 VH with S15T, S30I, S57G, H101I, D102T, S103E, S104T
VL: not shown
notes: as for B2

The target in one assay is T3, tagged rhesus monkey (Macaca mulata) PCSK9 (rhesus monkey (Macaca mulata), UniProt A8T666 31-692).
T3 construct: also called mmPCSK9-mmh; mmPCSK9
T3 sequence (A8T666 31-692 limits assumed): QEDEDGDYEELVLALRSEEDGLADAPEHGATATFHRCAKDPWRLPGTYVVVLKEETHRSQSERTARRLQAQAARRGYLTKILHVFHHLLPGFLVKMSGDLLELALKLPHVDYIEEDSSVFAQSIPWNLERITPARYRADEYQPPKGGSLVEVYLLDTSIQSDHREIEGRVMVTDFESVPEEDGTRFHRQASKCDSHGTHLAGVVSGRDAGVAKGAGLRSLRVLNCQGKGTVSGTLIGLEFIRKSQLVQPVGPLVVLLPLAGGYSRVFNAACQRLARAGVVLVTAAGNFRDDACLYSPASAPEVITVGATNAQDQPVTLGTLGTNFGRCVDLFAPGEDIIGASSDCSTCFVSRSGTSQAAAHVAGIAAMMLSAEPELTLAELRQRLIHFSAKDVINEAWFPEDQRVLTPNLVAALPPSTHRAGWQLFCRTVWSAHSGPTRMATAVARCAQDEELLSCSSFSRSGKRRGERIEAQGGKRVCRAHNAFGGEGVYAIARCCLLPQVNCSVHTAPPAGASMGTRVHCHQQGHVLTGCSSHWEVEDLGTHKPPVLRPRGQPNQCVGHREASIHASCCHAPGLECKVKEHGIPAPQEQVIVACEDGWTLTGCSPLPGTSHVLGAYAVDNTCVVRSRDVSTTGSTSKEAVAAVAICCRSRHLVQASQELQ
Put plainly: SPR, 25C. On the technique in general: In SPR one partner is held on a chip, and binding of the other changes the refractive index at the surface.
In the case of B1, the T1/2 came out at 76 min and the koff (usually a measure of how fast the partners let go of each other) came to 0.000152 s⁻¹.
B2 returned a T1/2 of 51 min and an off-rate (koff) of 0.000229 s⁻¹.
Turning to B3, the T1/2 came out at 3 min and the off-rate constant (koff) came out at 0.00369 s⁻¹.
Take B4: the T1/2 is 36 min and the off-rate (koff) stood at 0.000317 s⁻¹.
Molecule B5 displayed a T1/2 of 1 min and a koff of 0.00806 s⁻¹.

Another assay deals with T4, Human PCSK9-myc-myc-his (human, UniProt Q8NBP7 31-692).
T4 construct: also called hPCSK9-mmh; hPCSK9
Put plainly: SPR, mAb captured, 25C.
Description: (§1) Each antibody was captured at a flow rate of 4 μl/min for 90 sec on a goat anti-mouse IgG polyclonal antibody surface created through direct chemical coupling to a BIACORE™ chip to form a captured antibody surface.
With B1, binding was put at a Kd of 0.399 nM and the T1/2 was determined as 170 min.
B6: the dissociation constant (Kd) (in general, the concentration at which binding is half-saturated) was found to be 0.44 nM and the T1/2 is 222 min.
The like results for B7 were, in that order, 6.4 nM and 30 min.

For the next assay, the target named is T4, Human PCSK9-myc-myc-his. Put plainly: SPR, mAb captured, 37C.
Description: as §1
In turn, B1 showed a Kd of 1.51 nM and a T1/2 of 32 min.
The molecule B6 returned a Kd of 7.5 nM and a T1/2 of 19 min.
Molecule B7 displayed a Kd of 7.5 nM and a T1/2 of 14 min.

The next assay deals with T4, Human PCSK9-myc-myc-his. Put plainly: SPR, mAb captured, 25C. This is another data set of the same source.
Description: (§2) Each selected antibody was captured at a flowrate of 2 μl/min for 6 min on a goat anti-human IgG polyclonal antibody surface created through direct chemical coupling to a BIACORE™ chip to form a captured antibody surface.
As to B8, the dissociation constant (Kd) amounted to 30.4 nM and the T1/2 worked out at 137 min.
Take B2: binding was characterised by a dissociation constant (Kd) of 0.129 nM and the T1/2 is 151 min.
Molecule B3 yielded an equilibrium dissociation constant (Kd) of 0.972 nM and a T1/2 of 59 min.
As for B4, the Kd is 0.771 nM and the T1/2 was determined as 28 min.
As for B9, the equilibrium dissociation constant (Kd) was 0.865 nM and the T1/2 was determined as 106 min.
B5: the equilibrium dissociation constant (Kd) turned out to be 3.75 nM and the T1/2 was 46 min.

A further assay addresses T4, Human PCSK9-myc-myc-his. Put plainly: SPR, mAb captured, 37C. The source holds these as a separate data set.
Description: as §2
With B8, the Kd was 18.6 nM and the T1/2 was found to be 70 min.
The matching figures for B2: 0.413 nM and 35 min.
Molecule B3 showed a Kd of 1.69 nM and a T1/2 of 28 min.
The like results for B4 were, in that order, 1.93 nM and 8 min.
For the molecule B9, binding was put at a Kd of 3.36 nM and the T1/2 was found to be 23 min.
Molecule B5 yielded a Kd of 15.9 nM and a T1/2 of 8 min.

The target in the next assay is T4, Human PCSK9-myc-myc-his. The assay can be described thus: ELISA, mAb coated, 1.2 nM antigen.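 Further: antigen allowed to bind for 1 h at room temperature, then captured protein revealed with an HRP-linked polyclonal anti-myc antibody and read as optical density.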 In general terms: An ELISA detects its analyte on a solid surface through an enzyme-linked reagent.
Excerpt: (§3) After 1 hr binding at RT, the plate was washed and bound test protein detected using HRP-conjugated anti-myc polyclonal antibody (++=OD>1.0; +=OD 0.4-1.0; −=OD<0.4).
For the molecule B1, the OD is > 1 od.
B3: the OD is > 1 od.
With B4, the OD was > 1 od.
As for B6, the OD is > 1 od.
Still for that read-out and setting: under B7 stands > 1 od.
Regarding B5, the OD was > 1 od.

For the next assay, the target named is T5, hPCSK9(D374Y)-mmh (human, UniProt Q8NBP7 31-692).
T5 construct: also called hPCSK(D374Y)-mmh
Put plainly: ELISA, mAb coated, 1.2 nM antigen.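 Further: antigen allowed to bind for 1 h at room temperature, then captured protein revealed with an HRP-linked polyclonal anti-myc antibody and read as optical density.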
Excerpt: as §3
In the case of B1, the OD was > 1 od.
On to B3, for which the OD was > 1 od.
Still for that read-out and setting: the figure for B4 is > 1 od.
Consider B6, for which the OD was > 1 od.
Regarding B7, the OD was > 1 od.
Consider B5, for which the OD was > 1 od.

Another assay addresses T6, mouse PCSK9, myc-myc-his tagged (mouse, UniProt Q80W65 35-694).
T6 construct: also called mPCSK9-mmh; mPCSK9
The assay can be described thus: ELISA, mAb coated, 1.2 nM antigen.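 Further: antigen allowed to bind for 1 h at room temperature, then captured protein revealed with an HRP-linked polyclonal anti-myc antibody and read as optical density.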
Excerpt: as §3
B1: the OD was < 0.4 od.
Still for that read-out and setting: the figure for B3 is < 0.4 od; for B4 it is < 0.4 od; for B6 it is < 0.4 od.
The same measure, in the same setting: the figure for B7 is < 0.4 od; for B5 it is < 0.4 od.

The target of a further assay is T1, Chimeric protein #1 …. The assay can be described thus: ELISA, mAb coated, 1.2 nM antigen.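 Further: antigen allowed to bind for 1 h at room temperature, then captured protein revealed with an HRP-linked polyclonal anti-myc antibody and read as optical density.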
Excerpt: as §3
Turning to B1, the OD was > 1 od.
B3: the OD is > 1 od.
On to B4, for which the OD is < 0.4 od.
Turning to B6, the OD was < 0.4 od.
On the same count and under the same terms, under B7 stands < 0.4 od.
As to B5, the OD was > 1 od.

Another assay deals with Chimeric protein #2 (hPro-mCat-mC-term-mmh) (human; mouse, UniProt Q80W65 19-694). Put plainly: ELISA, mAb coated, 1.2 nM antigen.
Excerpt: as §3
In turn, B1 displayed an OD of 0.4 to 1 od.
As for B3, the OD is < 0.4 od.
Turning to B4, the OD is > 1 od.
Take B6: the OD was < 0.4 od.
For the molecule B7, the OD was < 0.4 od.
In the case of B5, the OD is < 0.4 od.

In another assay the target is T2, Chimeric protein #3 …. Put plainly: ELISA, mAb coated, 1.2 nM antigen.
Excerpt: as §3
As for B3, the OD is < 0.4 od.
On the same count and under the same terms, the figure for B4 is < 0.4 od.
Regarding B6, the OD is > 1 od.
Same read-out and setting: the figure for B7 is 0.4 to 1 od.
Same read-out and setting: the figure for B5 is < 0.4 od.

The values above are taken from patent US20130064834A1 (published 2013).
